According to patent publication US20180016312A1 (Pieris, published 2018):
Changes are numbered by the printed parent chain.

T1: human angiopoietin-2 (human, UniProt O15123 19-496, limits assumed)
T1 sequence (looked up): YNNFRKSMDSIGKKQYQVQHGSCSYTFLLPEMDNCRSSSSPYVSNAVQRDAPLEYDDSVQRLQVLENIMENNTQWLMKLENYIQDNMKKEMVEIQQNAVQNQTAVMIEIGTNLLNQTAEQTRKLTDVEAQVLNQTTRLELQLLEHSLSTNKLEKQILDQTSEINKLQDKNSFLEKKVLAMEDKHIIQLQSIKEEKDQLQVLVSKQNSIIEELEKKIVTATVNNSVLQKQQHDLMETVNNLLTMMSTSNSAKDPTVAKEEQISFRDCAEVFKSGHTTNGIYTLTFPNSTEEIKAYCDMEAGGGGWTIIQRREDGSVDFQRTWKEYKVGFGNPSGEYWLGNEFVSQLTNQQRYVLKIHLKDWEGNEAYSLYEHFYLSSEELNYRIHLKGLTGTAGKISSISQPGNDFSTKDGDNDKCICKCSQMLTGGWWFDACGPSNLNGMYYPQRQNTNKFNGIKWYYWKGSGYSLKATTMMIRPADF

T2: human angiopoietin-1 (human, UniProt Q15389 20-498, limits assumed)
T2 construct: Bought recombinant protein; also called human Ang-1; hAng-1
T2 sequence (looked up): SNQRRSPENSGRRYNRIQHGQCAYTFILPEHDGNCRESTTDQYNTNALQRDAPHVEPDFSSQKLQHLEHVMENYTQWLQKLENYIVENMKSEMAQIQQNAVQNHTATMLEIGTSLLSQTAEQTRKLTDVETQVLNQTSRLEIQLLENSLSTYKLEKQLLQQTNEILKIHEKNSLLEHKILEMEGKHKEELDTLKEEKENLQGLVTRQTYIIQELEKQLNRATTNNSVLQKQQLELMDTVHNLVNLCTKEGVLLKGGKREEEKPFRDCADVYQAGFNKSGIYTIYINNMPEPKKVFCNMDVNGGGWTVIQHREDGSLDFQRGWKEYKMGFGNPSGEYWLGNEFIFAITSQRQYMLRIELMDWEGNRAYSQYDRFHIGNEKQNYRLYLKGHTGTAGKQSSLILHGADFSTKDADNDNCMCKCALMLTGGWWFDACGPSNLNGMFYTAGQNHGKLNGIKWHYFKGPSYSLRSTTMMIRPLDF

T3: mouse angiopoietin-2 (mouse, UniProt O35608 19-496, limits assumed)
T3 construct: Bought recombinant protein; also called mouse Ang-2; mAng-2
T3 sequence (looked up): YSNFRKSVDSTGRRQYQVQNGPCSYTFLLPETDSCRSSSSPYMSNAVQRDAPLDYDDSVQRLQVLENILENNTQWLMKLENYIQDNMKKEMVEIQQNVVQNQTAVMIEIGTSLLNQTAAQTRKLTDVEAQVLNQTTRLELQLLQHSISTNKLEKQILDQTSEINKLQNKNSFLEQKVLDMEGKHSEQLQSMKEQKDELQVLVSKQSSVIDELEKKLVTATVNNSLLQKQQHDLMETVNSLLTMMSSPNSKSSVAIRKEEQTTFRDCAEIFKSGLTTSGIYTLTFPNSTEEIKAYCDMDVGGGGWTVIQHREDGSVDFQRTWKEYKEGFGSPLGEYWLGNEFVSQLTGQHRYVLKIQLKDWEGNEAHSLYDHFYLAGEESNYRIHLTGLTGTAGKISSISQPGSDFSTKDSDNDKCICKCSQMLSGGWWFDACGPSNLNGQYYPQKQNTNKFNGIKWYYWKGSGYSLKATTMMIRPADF

B1: hNGAL lipocalin mutein SEQ ID NO: 7 (designed binder)
chain: QDSTSDLIPAPPLSKVPLQQNFQDNQFHGKWYVVGHAGNYILREDKDPEKMWATIYELKEDKSYDVTEVSFGPKKCNYRIWTFVPGSQPGEFTLGGIKSPPGDTSTLVRVVSTNYNQHAMVFFKHVLQNREFFEITLYGRTKELTSELKENFIRFSKSLGLPENHIVFPVPIDQCIDGSAWSHPQFEK
notes: Mutein of mature hNGAL; Biotinylated with NHS-PEG4-Biotin for the SPR assay
B2: hNGAL lipocalin mutein SEQ ID NO: 8 (designed binder)
chain: B1 chain with H36Q, E49G, P73A, P100D, D103G
notes: as for B1
B3: hNGAL lipocalin mutein SEQ ID NO: 11 (designed binder)
chain: B1 chain with H36Q, E49V, P100L, D103G
notes: as for B1
B4: mature hNGAL (SEQ ID NO: 16), negative control (other)
chain: QDSTSDLIPAPPLSKVPLQQNFQDNQFQGKWYVVGLAGNAILREDKDPQKMYATIYELKEDKSYNVTSVLFRKKKCDYWIRTFVPGCQPGEFTLGNIKSYPGLTSYLVRVVSTNYNQHAMVFFKKVSQNREYFKITLYGRTKELTSELKENFIRFSKSLGLPENHIVFPVPIDQCIDG
notes: Used as negative control; Biotinylated for the SPR assay; also called human lipocalin 2; human NGAL

Assays:
human angiopoietin-2 [1] = target: T1, human angiopoietin-2; test: cell-based or functional assay
human angiopoietin-1 = target: T2, human angiopoietin-1; test: competition ELISA format (FIG. 2)
Procedure: In the following detailed experimental protocol, incubation and washing steps were performed as described above in the competition ELISA protocol (see Example 5).

human angiopoietin-2 [2] = target: T1, human angiopoietin-2; test: ELISA; Ang-2 coated, mutein detected by anti-Streptag-HRP
Procedure: Binding of muteins was tested by a sandwich ELISA assay.
20 μl of serially diluted muteins were incubated in PBS-T/BSA for 1h at room temperature (RT).
The residual supernatants were discarded and 20 μl HRP-labeled anti-Streptag antibody was added at a predetermined optimal concentration in PBS-T/BSA and incubated for 1 h at RT. After washing, 20 μl fluorogenic HRP substrate (QuantaBlu, Thermo) was added to each well, and the reaction was allowed to proceed for 15 to 60 minutes. The fluorescence intensity of every well on the plate was read using a fluorescence microplate reader (Tecan or Molecular Devices). Curve fitting was performed using GraphPad Prism 4 software.

human angiopoietin-2 [3] = target: T1, human angiopoietin-2; test: SPR Biacore T200; upper end of the range, tied to SEQ ID NO: 7 by Table 3
Procedure: (§1) In the SPR affinity assay, biotinylated muteins and negative control were captured on a sensor chip CAP using the Biotin CAPture Kit (GE Healthcare): Sensor Chip CAP is pre-immobilized with an ssDNA oligo. Undiluted Biotin CAPture Reagent (streptavidin conjugated with the complementary ss-DNA oligo) was applied at a flow rate of 2 μl/min for 300 s. Subsequently, 0.02 μg/mL of biotinylated muteins or negative control were applied for 300 s at a flow rate of 5 μl/min. […] The reference channel was loaded with Biotin CAPture Reagent only.
(§2) Applying a flow rate of 30 μL/min, a multi cycle kinetics approach was used with a sample contact time of 180 s and a dissociation time of 4600 s. All measurements were performed at 25° C. […] Data were evaluated with Biacore T200 Evaluation software (V 1.0). Double referencing was used. A 1:1 Binding model was used to fit the raw data even though the analyte was known to be a multimer.

human angiopoietin-2 [4] = target: T1, human angiopoietin-2; test: SPR Biacore T200; biotinylated mutein captured, hAng-2 analyte, 1:1 model, 25 C
Procedure: as §1, §2

human angiopoietin-2 [5] = target: T1, human angiopoietin-2; test: competition ELISA; 0.5 nM hAng-2 pre-incubated with binder, free hAng-2 captured on hTie-2 Fc (competitor)
Procedure: All incubation steps were performed with shaking at 300 rpm, and the plate was washed after each incubation step with 80 μl PBS-T buffer (PBS, 0.05% Tween 20) for five times using a Biotek EL405 select CW washer (Biotek). In the first step, a 384 well plate was directly coated with 20 μl of soluble human hTie-2 Fc (Reliatech) at a concentration of […] in PBS over night at 4 ° C. After washing, h Tie-2 Fc coated wells were blocked with 60 μl PBS-T/BSA (2% BSA in PBS containing 0.1% Tween 20) for 1 h at room temperature.
Curve fitting was performed using GraphPad Prism 4 software.

human angiopoietin-2 [6] = target: T1, human angiopoietin-2; test: competition cell ECL; hAng-2 pre-incubated with binder, free Ang-2 captured on HEK:hTie-2 cells (competitor)
Procedure: (§3) All incubation steps were performed at room temperature, and the plate was washed after each incubation step with 80 μl PBS buffer for two times using a Biotek EL405 select CW washer (Biotek). In the first step, a 384 well plate was precoated for 5 minutes with poly D lysine and washed twice with PBS. 10⁴ HEK:hTie-2 cells per well were seeded and allowed to adhere to the surface of the wells overnight at 37° C. . After washing, cell coated wells were blocked with 60 μl PBS/Casein (2% Casein in PBS) for 1 h at room temperature.
(§4) After washing, 35 μl surfactant-free reading buffer was added to each well and the ECL signal of every well was read using a Mesoscale Discovery reader.

mouse angiopoietin-2 = target: T3, mouse angiopoietin-2; test: competition cell ECL; mAng-2 pre-incubated with binder, free Ang-2 captured on HEK:hTie-2 cells (competitor)
Procedure: as §3, §4

human angiopoietin-2 [7] = target: T1, human angiopoietin-2; test: SPR Biacore T200; lower end of the range, tied to SEQ ID NO: 11 by Table 3
Procedure: as §1, §2

human angiopoietin-2 [8] = target: T1, human angiopoietin-2; test: SPR Biacore T200; biotinylated SEQ ID NO: 16 captured, hAng-2 analyte
Procedure: as §1, §2

Binder | IC50 mean, LEC proliferation assay (CellTiter-Glo) (human angiopoietin-2 [1]) [nM] | binding result (human angiopoietin-1) | EC50 (human angiopoietin-2 [2]) [nM] | Kd (human angiopoietin-2 [3]) [nM] | Kd (human angiopoietin-2 [4]) [nM] | koff (human angiopoietin-2 [4]) [s⁻¹] | IC50 (human angiopoietin-2 [5]) [nM] | IC50 (human angiopoietin-2 [6]) [nM] | IC50 (mouse angiopoietin-2) [nM] | Kd (human angiopoietin-2 [7]) [nM] | binding result (human angiopoietin-2 [8])
B1 | 0.199 | binds | 2.1 | 0.2 to 1.4 | 1.43 | 0.00026 | 0.0619 | 3.6 | 1.23 |  | 
B2 | 0.078 | binds | 2.4 |  | 0.37 | 0.00013 | 0.0708 | 3.75 | 1.25 |  | 
B3 | 0.169 |  | 2.3 |  | 0.21 | 0.00087 | 0.0988 | 4.79 | 1.45 | 0.2 to 1.4 | 
B4 |  |  |  |  |  |  |  |  |  |  | no binding (tested: human Ang-2 at 1-27 nM)
